Data from US6632626.
Blank lines part the entries; values can stand above or below the substance they belong to.

Assays:
[1] = biological target: rat brain farnesyl:protein transferase (rat) (UniProt Q04631); experiment: cell-based or functional assay
[2] = system: biotinylated KTSCVIM

concentration giving 50% inhibition (farnesyl transfer to p21^H-ras) [1]: 8 µM
Substance: CVIM with glycine at the A2 position (peptide)

fold decline of affinity for the enzyme [1]: > 50 fold
fold decrease of affinity for the enzyme against CVIM [1]: > 30 fold
Substance: CVIM with lysine at the A2 position (peptide)

fold decline of affinity for the enzyme [1]: > 50 fold
Substance: CVIM with glutamic acid at the A2 position (peptide)

Substance: rat brain farnesyl:protein transferase
farnesylation of the peptide (substrate activity) [2]: The studies with the biotinyated heptapeptide ( FIG. 12B ) confirm that at least some of the short peptides act as substrates for the enzyme
